From US8697416B2, “Recombinant polynucleotide, host cells containing the same and a process for producing a protein having aldolase activity” (Ajinomoto Co., Inc., priority 2002, dated 2014)
Where two headings read alike, the source gives them in different places.

Experiments:
[1] = Aldol condensation activity of PtALD using acetaldehyde and α-ketobutyrate (ESI-MS); format: biochemical; conditions: 50 mM acetoaldehyde, 250 mM α-ketobutyrate, 0.1 mg/ml PtALD, pH 9, 33° C., 16 hours
Protocol: The aldol condensation activity of the PtALD prepared in Example 4 was measured using acetaldehyde and α-ketobutyrate. A reaction solution composed of 100 mM glycine-NaOH (pH 9), 50 mM acetoaldehyde, 250 mM α-ketobutyrate, 1 mM MgCl2 and 0.1 mg/ml PtALD was prepared, and it was incubated at 33° C. for 16 hours. The resulting reaction solution was subjected to ultrafiltration with an ultrafiltration membrane, Microcon 10 (Amicon) for a fraction molecular weight of 10000. 10 μl of the filtrate was diluted in 200 μl of 50% acetonitrile/0.1% aqueous ammonia solution followed by ESI-MS analysis.

[2] = Synthesis of IHOG from indole-3-pyruvic acid and pyruvic acid using purified PtALD and PcALD; format: biochemical; conditions: PtALD 1.8 U/ml, PcALD 0.8 U/ml, pH 8.5, 33° C., 4 hours
Protocol: 4-(Indol-3-ylmethyl)-4-hydroxy-2-oxoglutarate (IHOG) was synthesized from indole-3-pyruvic acid and pyruvic acid using the PtALD and PcALD produced in Examples 4 and 5 as enzyme sources. The amount of IHOG was determined by HPLC analysis using the “Inertsil ODS-2” (GL Sciences Inc., 5 μm, 4.6×250 mm). The analysis conditions are as indicated below.
Mobile phase: 40% (v/v) acetonitrile/5 mM tetrabutyl
ammonium dihydrogen phosphate solution
Column temperature: 40° C.
PtALD and PcALD were added at 1.8 U/ml and 0.8 U/ml, respectively, to a reaction solution comprised of 100 mM Hepes-KOH (pH 8.5), 50 mM indole-3-pyruvic acid, 250 mM pyruvic acid and 1 mM to 5 mM MgCl2, and allowed to react at 33° C. for 4 hours. The enzyme reaction solution was suitably diluted and the amount of IHOG formed was quantified. As a result, IHOG was able to be formed from the aldolases.

[3] = Temperature stability of PtALD (residual activity); format: physicochemical; conditions: 30 minutes incubation, pH 7.0 and pH 9.0
Protocol: Residual activity was measured under the basic measurement conditions after incubating PtALD at 25 to 70° C. for 30 minutes in 100 mM potassium phosphate buffer (pH 7.0) and 100 mM glycine-NaOH buffer (pH 9.0).

[4] = Optimum pH of PtALD aldolase activity; format: biochemical; conditions: at 33° C.
Protocol: More specifically, aldolase activity may be estimated according to the following steps of adding aldolase to a reaction solution composed of 100 mM buffer, 50 mM indole-3-pyruvic acid, 250 mM pyruvic acid, 1 mM MgCl2 and 1% (v/v) toluene; and shaking while reaction at 33° C. for 4 hours; and then quantifying the amount of IHOG formed by HPLC.

[5] = Enzymatic properties of PtALD: kinetics constants when using PHOG as substrate; format: biochemical
Protocol: Basic reaction conditions: 50 mM Hepes-KOH (pH 8.0), 2 mM PHOG, 5 mM MgCl2, 3 mM KPB (pH 8), 16 U/ml of lactate dehydrogenase, measure a optical absorbance at 340 nm measured at 30° C.
The aldolase activity increased by 2.7 times as compared with a non-addition lot following addition of 1 mM MgCl2, and increased 2 times as compared with a non-addition lot following addition of 5 mM KPB.

[6] = pH stability of PtALD (residual activity); format: physicochemical; conditions: 37° C., 30 minutes, 100 mM buffers
Protocol: pH stability was measured over a range of pH 3 to pH 11. The buffers used for measurement were as follows: sodium acetate buffer (pH 3, 4, 5, 6), potassium phosphate buffer (pH 6, 6.5, 7, 7.5), Tris-HCl buffer (pH 7, 7.5, 8, 8.5), glycine-NaOH buffer (pH 9, 9.5, 10), CAPS-NaOH buffer (pH 10, 10.5, 11). The residual activity after incubating PtALD at 37° C. for 30 minutes in each of the buffer solutions at a concentration of 100 mM was measured under the basic reaction conditions.

[7] = Aldol condensation activity of pyruvic acid for various substrates using PtALD (ESI-MS); format: biochemical; conditions: 50 mM substrate, 250 mM sodium pyruvate, 0.1 mg/ml PtALD, pH 9, 33° C., 2 hours; substrates of Tables 11 and 12
Protocol: The aldol condensation activity of pyruvic acid was measured for the various substrates shown in Table 11 using the PtALD produced in Example 4. A reaction solution was prepared composed of 100 mM glycine-NaOH (pH 9), 50 mM substrate, 250 mM sodium pyruvate, 1 mM MgCl2 and 0.1 mg/ml PtALD, and incubated at 33° C. for 2 hours. The resulting reaction solution was subjected to ultrafiltration with an ultrafiltration membrane, Microcon 10 (Amicon) for a fraction molecular weight of 10000. 2 μl of the filtrate was diluted in 200 μl of 50% acetonitrile/0.1% aqueous ammonia solution followed by ESI-MS analysis.

Molecule | Formation of aldol condensate from acetaldehyde and α-ketobutyrate [1] | IHOG formed ([2]; MgCl2 1 mM) | IHOG formed ([2]; MgCl2 5 mM) | temperature stability [3] | optimum pH [4] | Increase of aldolase activity as compared with a non-addition lot ([5]; addition of 1 mM MgCl2) | Increase of aldolase activity as compared with a non-addition lot ([5]; addition of 5 mM KPB) | Ka (for KPi) ([5]; pH 8.0, 30° C.) | Vmax (for PHOG) ([5]; pH 8.0, 30° C.) | Km ([5]; pH 8.0, 30° C., read-out: Km (for MgCl2)) | Km ([5]; pH 8.0, 30° C., read-out: Km (for PHOG)) | pH stability (pH) [6] | Formation of pyruvic acid aldol condensates for various substrates [7]
PtALD: aldolase derived from Pseudomonas taetrolens ATCC4683, amino acid sequence SEQ ID No: 2 or 3; recombinant, purified in Example 4 (protein, listed as Pseudomonas taetrolens) MEVAMSLPGSRIYPSPPQAPRSLLDAFQNVVTPHISDNLGRHIGARGLTRYNHTGKLVGTALTVKTRPGDNLYIYKALTLIEPGHVLVIDAQGDATNAVIGELIKLYAQQRGCVGFVVDGAIRDVASFEDTPCYARSVVHCGPYKSGPGEINVPVSIGGMIINPGDIIVGDEDGLVAFSPDHAEQVLVKAREHDAHEQQVKAEIATGAIDQSWLDKVLEKAGLAN | formation of the desired aldol condensate | 11.4 mM | 10.5 mM | ≤ 70 °C | about 9 | 2.7 times | 2 times | 0.95 mM | 91.7 µmol/min/mg | 19 µM | 100 µM | ≥ 6 | the desired pyruvic acid aldol condensates were formed
PcALD: aldolase derived from Pseudomonas coronafaciens strain AJ2791, amino acid sequence SEQ ID No: 16; recombinant, purified in Example 5 (protein, listed as Pseudomonas coronafaciens) MKCHSVIWFSAWPHPIISREKSHMTIGFRVLSAARKVSPEWVARYRDVPVANVSDSMNRMTAGGSRLRPMHRAGVLAGPALTVKARPGDNLMLHYAIDIAQPGDVIVVDAGGDLTNALIGEMMVAYAVKRGVAGIVINGAIRDAASIGAGDFPMFAAGVSHRGPYKDGPGEINVPIAIDGMVIEAGDLVIGDDDGLLCVPYDQVAEVYDRAAAKHHAEQKQLEQIAKGENDRSWVLESLKKKGCQLPE | – | 4.9 mM | 5.4 mM | – | – | – | – | – | – | – | – | – | –
